Where a SMILES comes first, the peptide text is derived from it. Bridges are numbered along the chain shown (N, C = ends). [ ]: non-standard residue; d: D form. S5 = C=CCCC[C@](C)(N)C(=O)O
Molecular target: T1, airway SNAREs only (Homo sapiens, UniProt O00161+Q13277+Q9BV40, C112S/C79S/C80S/C83S/C85S/C87S)
T1 sequence (Q9BV40 1-100): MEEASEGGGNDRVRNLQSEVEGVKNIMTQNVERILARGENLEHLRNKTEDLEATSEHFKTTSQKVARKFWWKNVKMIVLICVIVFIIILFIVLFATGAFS
T1 sequence (Q13277 1-289): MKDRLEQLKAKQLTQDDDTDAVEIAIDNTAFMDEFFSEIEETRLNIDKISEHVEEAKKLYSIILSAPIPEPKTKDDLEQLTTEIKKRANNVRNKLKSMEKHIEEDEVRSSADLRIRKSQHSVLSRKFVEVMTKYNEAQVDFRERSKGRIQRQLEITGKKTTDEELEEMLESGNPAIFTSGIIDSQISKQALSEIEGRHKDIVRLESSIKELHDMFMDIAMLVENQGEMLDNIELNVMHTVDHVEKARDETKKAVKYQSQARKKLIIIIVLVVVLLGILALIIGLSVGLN
T1 sequence (O00161 1-211 C79S/C80S/C83S/C85S/C87S/C112S): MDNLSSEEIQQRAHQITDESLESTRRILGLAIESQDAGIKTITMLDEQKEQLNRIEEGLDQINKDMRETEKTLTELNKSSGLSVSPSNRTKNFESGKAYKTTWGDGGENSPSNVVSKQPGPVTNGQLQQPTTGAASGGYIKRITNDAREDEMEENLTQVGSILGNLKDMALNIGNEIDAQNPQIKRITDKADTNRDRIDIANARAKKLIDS
Assay: Single vesicle content mixing assay, airway SNAREs only (VAMP8 vesicles)
Assay type: biochemical
Conditions: 10 μM peptide; raw count
Description: For single vesicle content mixing assay, the lipid composition of the SV, SG, VAMP2, or VAMP8 vesicles was phosphatidylcholine (PC) (48%), phosphatidylethanolamine (PE) (20%), phosphatidylserine (PS) (12%), and cholesterol (20%); for both the neuronal and airway PM vesicles the lipid composition was Brain Total Lipid Extract supplemented 3.5 mol % PIP2, and 0.1 mol % biotinylated phosphatidylethanolamine (PE). The reconstitution method for neuronal PM and SV vesicles was described in detail previously (see Lai et al., 2017; Kyoung et al., 2011; and Lai et al., 2014). The same methods were used for airway PM, SG, VAMP2, and VAMP8 vesicles. […] A 3-5 fold excess of SNAP-25A or SNAP-23 (with respect to Stx1A or Stx3) and 3.5 mol % PIP2 were added to the protein-lipid mixture for neuronal or airway PM vesicles. […] For the preparation of SV, SG, VAMP2, or VAMP8 vesicles for single vesicle content mixing assay, 50 mM sulforhodamine B (Thermo Fisher Scientific) was added to the protein-lipid mixture. The vesicles subsequently formed during size exclusion chromatography using a Sepharose CL-4B column, packed under near constant pressure by gravity with a peristaltic pump (GE Healthcare) in a 5.5 ml column with a 5 ml bed volume that was equilibrated with buffer V (20 mM HEPES, pH 7.4, 90 mM NaCl) supplemented with 20 μM EGTA and 0.1% 2-mercaptoethanol. The eluent was subjected to dialysis into 21 of detergent-free buffer V supplemented with 20 μM EGTA, 0.1% 2-mercaptoethanol, 5 g of Bio-beads SM2 (Bio-Rad) and 0.8 g/L Chelex 100 resin (Bio-Rad). After 4 hours, the buffer was exchanged with 21 of fresh buffer V supplemented with 20 μM EGTA, 0.1% 2-mercaptoethanol and Bio-beads, and the dialysis continued for another 12 h (overnight). […] For ensemble lipid mixing assay, the reconstitution method is the same as that for the single vesicle content mixing assay, except that 50 mM sulforhodamine B was omitted for all the steps. Single vesicle content mixing experiments. All single vesicle fusion and single molecule experiments were performed on a prism-type total internal reflection fluorescence (TIRF) microscope using 532 nm (green) laser (CrystaLaser) excitation. Two observation channels were created by a 640 nm single-edge dichroic […]36, Shemrock): one channel was used for the fluorescence emission intensity of the content dyes and the other channel for that of the Cy5 dye that are part of the injected Ca^2+-solution. The two channels were recorded on two adjacent rectangular areas (45×90 m^2) of a charge-coupled device (CCD) camera (iXon+DV […], Andor Technology). The imaging data were recorded with the […] software developed by Taekjip Ha, Johns Hopkins University, Baltimore. Flow chambers were assembled by creating a “sandwich” consisting of a quartz slide and a glass coverslip that were both coated with polyethylene glycol (PEG) molecules consisting 0.1% (w/v) biotinylated-PEG except when stated otherwise, and using double-sided tape to create up to five flow-chambers. The single vesicle content mixing assay described in Lai et al. (2014) was used to monitor vesicle-vesicle association, Ca^2+-independent, and Ca^2+-triggered fusion. The surface of the quartz slides was passivated by coating the surface with polyethylene glycol (PEG) molecules which alleviated non-specific binding of vesicles. […]

Compound: CC[C@H](C)[C@H](NC(=O)[C@]1(C)CCCC=CCCC[C@](C)(NC(=O)[C@H](CCC(=O)O)NC(=O)[C@H](CCC(=O)O)NC(C)=O)C(=O)N[C@@H](CCCCN)C(=O)N[C@@H](CC(=O)O)C(=O)N[C@@H](C)C(=O)N1)C(=O)N[C@@H](CCCNC(=N)N)C(=O)N[C@@]1(C)CCCC=CCCC[C@@](C)(C(=O)N[C@@H](CC(=O)O)C(=O)N[C@@H](CCC(=O)O)C(=O)N[C@@H](CCC(N)=O)C(=O)N[C@@H](CS)C(N)=O)NC(=O)[C@H](CCSC)NC(=O)[C@H](C(C)C)NC(=O)[C@H](CC(C)C)NC1=O [SP9, Ac-EE(S5)KDA(S5)IR(S5)LVM(S5)DEQC-amide] (Ac-EE[S5]KDA[S5]IR[S5]LVM[S5]DEQC-NH2; staple 3-7, 10-14)
- Ca2+ independent fusion events: 22

Compound: Ac-SKD(S5)GIR(S5)LV(S5)LDE(S5)GEQL-amide (Ac-SKD[S5]GIR[S5]LV[S5]LDE[S5]GEQL-NH2; staple 11-15, 4-8; SMILES CC[C@H](C)[C@@H]1NC(=O)CNC(=O)[C@@](C)(NC(=O)[C@H](CC(=O)O)NC(=O)[C@H](CCCCN)NC(=O)[C@H](CO)NC(C)=O)CCCC=CCCC[C@@](C)(C(=O)N[C@@H](CC(C)C)C(=O)N[C@H](C(=O)N[C@@]2(C)CCCC=CCCC[C@@](C)(C(=O)NCC(=O)N[C@@H](CCC(=O)O)C(=O)N[C@@H](CCC(N)=O)C(=O)N[C@@H](CC(C)C)C(N)=O)NC(=O)[C@H](CCC(=O)O)NC(=O)[C@H](CC(=O)O)NC(=O)[C@H](CC(C)C)NC2=O)C(C)C)NC(=O)[C@H](CCCNC(=N)N)NC1=O) [SP10]
- Ca2+ independent fusion events: 18

Compound: Ac-SKD(S5)GIR(S5)LVMLDE(S5)GEQ(S5)DR-amide (Ac-SKD[S5]GIR[S5]LVMLDE[S5]GEQ[S5]DR-NH2; staple 15-19, 4-8; SMILES CC[C@H](C)[C@@H]1NC(=O)CNC(=O)[C@@](C)(NC(=O)[C@H](CC(=O)O)NC(=O)[C@H](CCCCN)NC(=O)[C@H](CO)NC(C)=O)CCCC=CCCC[C@@](C)(C(=O)N[C@@H](CC(C)C)C(=O)N[C@H](C(=O)N[C@@H](CCSC)C(=O)N[C@@H](CC(C)C)C(=O)N[C@@H](CC(=O)O)C(=O)N[C@@H](CCC(=O)O)C(=O)N[C@@]2(C)CCCC=CCCC[C@@](C)(C(=O)N[C@@H](CC(=O)O)C(=O)N[C@@H](CCCNC(=N)N)C(N)=O)NC(=O)[C@H](CCC(N)=O)NC(=O)[C@H](CCC(=O)O)NC(=O)CNC2=O)C(C)C)NC(=O)[C@H](CCCNC(=N)N)NC1=O) [SP1]
- Ca2+ independent fusion events: 26

Compound: Ac-SKDA(S5)IRT(S5)VM(S5)DEQ(S5)EQL-amide (Ac-SKDA[S5]IRT[S5]VM[S5]DEQ[S5]EQL-NH2; staple 12-16, 5-9; SMILES CC[C@H](C)[C@@H]1NC(=O)[C@@](C)(NC(=O)[C@H](C)NC(=O)[C@H](CC(=O)O)NC(=O)[C@H](CCCCN)NC(=O)[C@H](CO)NC(C)=O)CCCC=CCCC[C@@](C)(C(=O)N[C@H](C(=O)N[C@@H](CCSC)C(=O)N[C@@]2(C)CCCC=CCCC[C@@](C)(C(=O)N[C@@H](CCC(=O)O)C(=O)N[C@@H](CCC(N)=O)C(=O)N[C@@H](CC(C)C)C(N)=O)NC(=O)[C@H](CCC(N)=O)NC(=O)[C@H](CCC(=O)O)NC(=O)[C@H](CC(=O)O)NC2=O)C(C)C)NC(=O)[C@H]([C@@H](C)O)NC(=O)[C@H](CCCNC(=N)N)NC1=O) [SP4]
- Ca2+ independent fusion events: 16

Compound: EESKDAGIRTLVMLDEQGEQLD [Peptide P0, non-stapled SNAP-25A fragment used as a control, reference compound]
- Ca2+ independent fusion events: 38

— patent US20250163122A1, “COMPOSITIONS AND METHODS FOR TREATING AIRWAY MUCUS DYSFUNCTION” (BOARD OF REGENTS, THE UNIVERSITY OF TEXAS SYSTEM, priority 2022, published 2025)
